Results on six molecules are retold here after article PMC4384732 (The Journal of Cell Biology, 2015).

B1: CCM2 LD–like motif peptide (224–239) (peptide)
peptide: Ac-STIDFLDRAIFDGAST-NH2
B2: N-terminally 6×His-tagged full-length CCM3 (natural protein)
chain: not shown
B3: GST-CCM2^PTB-LongLinker (residues 51–251) (domain or fragment, human, UniProt Q9BSQ5 51-251, looked up)
chain: ERVEPDRLLSDYIEKEVKYLGQLTSIPGYLNPSSRTEILHFIDNAKRAHQLPGHLTQEHDAVLSLSAYNVKLAWRDGEDIILRVPIHDIAAVSYVRDDAAHLVVLKTAQDPGISPSQSLCAESSRGLSAGSLSESAVGPVEACCLVILAAESKVAAEELCCLLGQVFQVVYTESTIDFLDRAIFDGASTPTHHLSLHSDDS
B4: GST-CCM2^PTB-ShortLinker (residues 51–238) (domain or fragment, human, UniProt Q9BSQ5 51-238, looked up)
chain: ERVEPDRLLSDYIEKEVKYLGQLTSIPGYLNPSSRTEILHFIDNAKRAHQLPGHLTQEHDAVLSLSAYNVKLAWRDGEDIILRVPIHDIAAVSYVRDDAAHLVVLKTAQDPGISPSQSLCAESSRGLSAGSLSESAVGPVEACCLVILAAESKVAAEELCCLLGQVFQVVYTESTIDFLDRAIFDGAS
B5: CCM3 (purified, polyhistidine tag removed by TEV protease) (natural protein)
chain: not shown
B6: GST-CCM2-LD–like motif (residues 224–239) (peptide)
chain: STIDFLDRAIFDGAST

Series [1] deals with B5. The series can be described thus: crystal structure.
Series [2] has as its target GST-CCM2^FL (residues 1–438) (human, UniProt Q9BSQ5 1-438). The series can be described thus: pull-down.
In series [3] the target is B2. The series can be described thus: pull-down.
The series “crystal structure” concerns the molecule itself. Kind of series: crystal structure.
Series [4] has as its target B5. Kind of series: BLI.
Series [5] has as its target B2. The series can be described thus: pull-down. The source holds these as a separate data set.

Chain of GST-CCM2^FL (residues 1–438) (Q9BSQ5 1-438): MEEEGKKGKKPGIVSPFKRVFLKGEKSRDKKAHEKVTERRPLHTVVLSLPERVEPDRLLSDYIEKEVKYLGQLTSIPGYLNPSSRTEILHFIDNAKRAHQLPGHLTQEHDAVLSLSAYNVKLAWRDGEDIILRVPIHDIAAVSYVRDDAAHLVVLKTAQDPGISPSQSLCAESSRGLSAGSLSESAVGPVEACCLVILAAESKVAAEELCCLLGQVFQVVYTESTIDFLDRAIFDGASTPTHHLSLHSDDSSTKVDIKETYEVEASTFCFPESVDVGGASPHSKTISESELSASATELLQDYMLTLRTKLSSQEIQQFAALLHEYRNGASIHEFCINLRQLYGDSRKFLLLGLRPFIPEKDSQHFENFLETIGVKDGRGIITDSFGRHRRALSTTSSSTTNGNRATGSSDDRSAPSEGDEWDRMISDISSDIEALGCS

For B1, the binding result in series [1] is “binds”.
For orientation: Kd means the equilibrium constant for the complex coming apart. Low values mean a tighter complex, high ones a looser complex. As for B2, the dissociation constant (Kd) in series [2] came out at 8.8 ± 1.6 µM.
As to B3, the binding result in series [3] is reported as “binds”.
Consider B4, for which the binding result in series [3] is on record as “binds”.
Turning to B5, in “crystal structure”, the binding result is listed as “binds”.
As to B6, the Kd was determined as 9.5 ± 2.5 µM in series [4] and 8.6 ± 2.2 µM in series [5].
